Laboratory results published in patent US20220356245A1 (FORTY SEVEN, published 2022).
Read-outs that look alike come from different tables or passages of the source.

Key:
[1] = biological target: T1, human CD47 (hCD47) expressed on cells (human, UniProt Q08722 19-323); assay: flow cytometry, Raji cells, competition with hSIRPα
T1 construct: Transfected CHO cells or endogenous CD47 of human cells; also called CHO-hCD47; CD47 on Raji cells

[2] = biological target: T1, human CD47 (hCD47) expressed on cells; assay: flow cytometry, Raji cells
[3] = biological target: T1, human CD47 (hCD47) expressed on cells; assay: flow cytometry on Raji cells, hIgG4 format: inhibition of hSIRPα binding to hCD47
[4] = biological target: T2, hu-sCD47-6His; extracellular domain of human CD47 antigen with 6His-tag (human); assay: SPR Biacore
T2 construct: also called hCD47-his; soluble hCD47
Description: (§1) An anti-human or anti-mouse IgG (Fc) was first immobilized on the surface of Serie S Sensor Chips CM5 using the human or mouse antibody capture and amine coupling kits, following the manufacturer's instructions (GE Healthcare). […] The mouse, chimerized or humanized antibodies to be tested were then captured onto the appropriate anti-mouse or anti-human IgG surface in all flow cells except flow cell 1 used as control, at concentration and contact time adjusted so that ˜300 RU were captured on the surface. Binding kinetics were studied by passing increasing concentrations of hCD47-his in a series of five 10 minute injections through all flow cells at a rate of 30 μL/min. […] Following the final injection, buffer was passed across each flow cell for 60 minutes (mouse) or 30 minutes (human) to monitor the dissociation of bound antigen. Regeneration of the binding surface was carried out at the end of the cycle by flowing 3 M MgCl₂ for 60 s at 20 μL/min followed by 10 mM glycine-HCl, pH 1.7 for 180 s at 10 μl/min (for human) or by flowing 10 mM glycine-HCl, ph 1.7 for 360 s at 10 μl/min (for mouse). A second cycle with the same antibodies but no antigen was run as a control. Kinetics binding constants were estimated by non-linear fitting of the sensogram data to the 1:1 binding model provided by the Biacore T200 evaluation software.

[5] = biological target: T1, human CD47 (hCD47) expressed on cells; assay: flow cytometry on Raji cells, hIgG4 format, delta MFI
[6] = biological target: T1, human CD47 (hCD47) expressed on cells; assay: as above; remark: listed apart in the source
[7] = biological target: T3, N-deglycosylated soluble hCD47-His (PNGase treated) (human, N-glycans removed with PNGase); assay: ELISA, one-site binding saturation fit, deglycosylated hCD47
T3 construct: also called deglycosylated-hCD47; N-Deglycosylated hCD47-His
Protocol: (§2) The equilibrium binding constant values were calculated by using the binding saturation/one-site binding model of the GraphPad Prism software (mean +/− SD of triplicates).

[8] = biological target: T3, N-deglycosylated soluble hCD47-His …; assay: ELISA; against glycosylated hCD47-His
Protocol: (§3) The EC50 and EC95 values were calculated by using the non-linear regression/log (antibody) versus response (four parameters) model of the GraphPad Prism software.

[9] = biological target: T2, hu-sCD47-6His; extracellular domain of …; assay: ELISA, coated glycosylated hCD47-His
Protocol: as §3

[10] = biological target: T3, N-deglycosylated soluble hCD47-His …; assay: ELISA, coated N-deglycosylated hCD47-His
[11] = biological target: T1, human CD47 (hCD47) expressed on cells; assay: flow cytometry on Raji cells, hIgG4 format: inhibition of hSIRPα binding to hCD47; remark: listed apart in the source
[12] = biological target: T3, N-deglycosylated soluble hCD47-His …; assay: ELISA, one-site binding saturation fit, deglycosylated hCD47; remark: listed apart in the source
Protocol: (§4) The Bmax values were calculated by using the binding saturation/one-site binding model of the GraphPad Prism software (mean +/− SD of triplicates).

[13] = biological target: T2, hu-sCD47-6His; extracellular domain of …; assay: ELISA, one-site binding saturation fit, glycosylated hCD47
Protocol: as §2

[14] = biological target: T2, hu-sCD47-6His; extracellular domain of …; assay: as above; remark: listed apart in the source
Protocol: as §4

[15] = biological target: T1, human CD47 (hCD47) expressed on cells; assay: flow cytometry, Raji cells, competition with hSIRPα; remark: listed apart in the source
[16] = biological target: T2, hu-sCD47-6His; extracellular domain of …; assay: SPR Biacore; head read as x 10^-4
Description: as §1

[17] = biological target: T2, hu-sCD47-6His; extracellular domain of …; assay: SPR Biacore; remark: listed apart in the source
Description: as §1

[18] = biological target: T1, human CD47 (hCD47) expressed on cells; assay: flow cytometry, Raji cells; remark: listed apart in the source
[19] = biological target: T1, human CD47 (hCD47) expressed on cells; assay: flow cytometry on Raji cells, hIgG4 format: inhibition of hSIRPα binding to hCD47; remark: listed apart in the source
[20] = biological target: T4, mouse CD47 (mCD47) expressed on CHO cells (mouse, UniProt Q61735 19-303); assay: flow cytometry, CHO-mCD47 cells (not shown)
T4 construct: whole, on cells; also called CHO-mCD47
T4 sequence (looked up): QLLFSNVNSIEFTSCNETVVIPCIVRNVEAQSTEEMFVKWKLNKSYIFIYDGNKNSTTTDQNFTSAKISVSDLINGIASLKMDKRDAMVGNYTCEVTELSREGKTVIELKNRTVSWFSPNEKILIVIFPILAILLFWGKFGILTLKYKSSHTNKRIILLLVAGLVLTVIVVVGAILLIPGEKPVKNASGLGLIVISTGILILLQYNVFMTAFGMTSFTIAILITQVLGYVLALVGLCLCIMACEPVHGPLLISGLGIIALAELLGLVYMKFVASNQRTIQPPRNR

[21] = biological target: T1, human CD47 (hCD47) expressed on cells; assay: flow cytometry on Raji cells, hIgG4 format, delta MFI; remark: listed apart in the source
[22] = biological target: T1, human CD47 (hCD47) expressed on cells; assay: flow cytometry, Raji cells; remark: listed apart in the source
[23] = biological target: T2, hu-sCD47-6His; extracellular domain of …; assay: SPR Biacore T200, antibody captured, hCD47-his analyte;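 also: antibodies captured on anti-IgG (Fc) CM5 chip, five sequential 10 min antigen injections at rising concentrations, reference flow cell and antigen-free cycle as controls, 1:1 model fit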
[24] = biological target: T1, human CD47 (hCD47) expressed on cells; assay: cell-based or functional assay
[25] = biological target: T1, human CD47 (hCD47) expressed on cells; assay: flow cytometry, hCD47-CHO cells, competition with His-hSIRPα
Protocol: Human CD47-transfected cells (3×10⁵ cells/well of 96-well plate) were first incubated at +4° C. for 30 minutes with serial dilutions of anti-CD47 antibodies or isotype control antibody (in mIgG2a or mIgG1 format). […] The percentage inhibition was plotted against antibody concentration and the IC50 values were calculated using a nonlinear regression analysis model of the GraphPad Prism software.

[26] = biological target: T4, mouse CD47 (mCD47) expressed on CHO …; assay: flow cytometry, CHO-mCD47 cells
[27] = biological target: T1, human CD47 (hCD47) expressed on cells; assay: flow cytometry, Raji cells, competition with His-hSIRPα; lower end tied to candidates 14 and 15 by Table 7
Protocol: (§5) The percent inhibition was plotted against antibody concentration and the IC50 values were calculated by using a nonlinear regression analysis model of the GraphPad Prism software.

[28] = biological target: T1, human CD47 (hCD47) expressed on cells; assay: flow cytometry, Raji cells, competition with His-hSIRPα
Protocol: as §5

[29] = biological target: T1, human CD47 (hCD47) expressed on cells; assay: flow cytometry, Raji cells; remark: listed apart in the source
[30] = biological target: T1, human CD47 (hCD47) expressed on cells; assay: flow cytometry, Raji cells, competition with hSIRPα; remark: listed apart in the source
[31] = biological target: T2, hu-sCD47-6His; extracellular domain of …; assay: SPR Biacore; remark: listed apart in the source
Description: as §1

B1: h20-H3-L2Y (candidate 20.27), hIgG4-S228P (antibody, V domains shown)
VH: QVQLVQSGAEVKKPGASVKVSCKASGYSFTDYYINWVRQAPGQGLEWMGRIYPGIGNTYYNKKFKGRVTVTRDTSISTAHMELSSLRSDDTAVYYCARGHYGRGMDYWGQGTAVTVSS
VL: DIVMTQSPDSLAVSLGERATINCKSSQSLLNSIDQKNYLAWYQQKPGQPPKLLIYYASTKESGVPDRFSGSGSGTDFTLTISSLQAEDVAVYYCQQHYSTPWTFGGGTKVEIKR
notes: also called H20-VH3-VL2,Y
IC50 [1]: 0.101 µg/mL
EC50 [2]: 0.0854 µg/mL
IC50 (read off the curve) [3]: ~0.2 µg/mL
Kd [4]: 2.06 nM
koff [4]: 0.000584 s⁻¹
kon [4]: 292000 M⁻¹ s⁻¹
EC50 (read off the curve) [5]: ~0.1 µg/mL

B2: h20-H2-L5Y (candidate 20.26), huIgG4_S228P format (antibody, V domains shown)
VH: QVQLVQSGAEVKKPGASVKVSCKASGYSFTDYYINWVRQAPGQGLEWMGRIYPGIGNTYYNKKFKGRVTITRDTSASTAYMELSSLRSEDTAVYYCARGHYGRGMDYWGQGTLVTVSS
VL: DIVMTQSPDSLAVSLGERATINCKSSQSLLNSIDQKNYLAWYQQKPGQPPKLLIYYASTKESGVPDRFSGSGSGTDFTLTISGLQAEDVAVYFCQQHYSTPWTFGGGTKVEIRR
notes: also called H20-VH2-VL5,Y; h2O-H2L5Y
IC50 [1]: 0.113 µg/mL
EC50 (read off the curve) [6]: ~0.1 µg/mL
equilibrium binding constant [7]: 55.7 pM
EC50 ratio Deglycosylated/Glycosylated [8]: 2.2 ratio
EC95 ratio Deglycosylated/Glycosylated [8]: 8.5 ratio
EC50 [9]: 0.044 nM
EC95 [9]: 1.33 nM
EC50 [2]: 0.0975 µg/mL
EC50 [10]: 0.096 nM
EC95 [10]: 11.3 nM
IC50 (read off the curve) [11]: ~0.2 µg/mL
Kd [4]: 2.32 nM
koff [4]: 0.000699 s⁻¹
kon [4]: 306000 M⁻¹ s⁻¹
Bmax2 [12]: 1.97 OD value
equilibrium binding constant [13]: 43.6 pM
Bmax [14]: 2.85 OD value

B3: h20-VH4-VL5 (candidate 20.20) (antibody, human IgG4 S228P, kappa, V domains shown)
VH: QVQLVQSGAEVKKPGSSVKVSCKASGYSFTDYYINWVRQAPGQGLEWMGRIYPGIGNTYYNKKFKGRVTITADKSTSTAYMELSSLRSEDTAVYYCARGHYGRGMDYWGQGTTVTVSS
VL: DIVMTQSPDSLAVSLGERATINCKSSQSLLNSIDQKNYLAWYQQKPGQPPKLLIYFASTKESGVPDRFSGSGSGTDFTLTISGLQAEDVAVYFCQQHYSTPWTFGGGTKVEIRR
notes: hIgG4-S228P/kappa; also called h20-H4-L5
IC50 [15]: 0.095 µg/mL
koff [16]: 0.000624 s⁻¹
Kd [17]: 3.5 nM
kon [17]: 192000 M⁻¹ s⁻¹
EC50 [18]: 0.136 µg/mL
IC50 (read off the curve) [19]: ~0.3 µg/mL
binding result [20]: no binding
EC50 (read off the curve) [21]: ~0.1 µg/mL

B4: h20-H4-L5Y (candidate 20.30), hIgG4-S228P (antibody, V domains shown)
VH: QVQLVQSGAEVKKPGSSVKVSCKASGYSFTDYYINWVRQAPGQGLEWMGRIYPGIGNTYYNKKFKGRVTITADKSTSTAYMELSSLRSEDTAVYYCARGHYGRGMDYWGQGTTVTVSS
VL: DIVMTQSPDSLAVSLGERATINCKSSQSLLNSIDQKNYLAWYQQKPGQPPKLLIYYASTKESGVPDRFSGSGSGTDFTLTISGLQAEDVAVYFCQQHYSTPWTFGGGTKVEIRR
notes: also called H20-VH4-VL5,Y
IC50 [1]: 0.149 µg/mL
IC50 (read off the curve) [19]: ~0.3 µg/mL
EC50 [2]: 0.105 µg/mL
Kd [4]: 2.82 nM
koff [4]: 0.000693 s⁻¹
kon [4]: 254000 M⁻¹ s⁻¹
EC50 (read off the curve) [21]: ~0.1 µg/mL

B5: Candidate 20 (VL008-AL18-14G4-14K1), mouse IgG (antibody, V domains shown)
VH: QVQLKQSGAELVRPGASVKLSCKASGYSFTDYYINWVKQRPGQGLEWIARIYPGIGNTYYNKKFKGKATLTAEKSSSTAYMQLNSLTSEDSAVYFCARGHYGRGMDYWGQGTSVTVSS
VL: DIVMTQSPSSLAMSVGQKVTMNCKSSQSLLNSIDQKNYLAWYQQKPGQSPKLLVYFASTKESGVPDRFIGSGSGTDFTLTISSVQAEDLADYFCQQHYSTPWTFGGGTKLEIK
notes: Recombinant mouse IgG2a or mIgG1 format, by assay; also called antibody 20
EC50 [22]: 0.096 µg/mL
Kd [23]: 4.16 nM
koff [23]: 0.000418 s⁻¹
kon [23]: 101000 M⁻¹ s⁻¹
Phagocytic index, Raji cells and human macrophages, antibody at 0.125 µg/mL [24]: 119 Raji cells ingested per 100 macrophages
IC50 [25]: 0.44 µg/mL
binding result [26]: no binding (tested: 7.3 µg/mL highest concentration)

B6: Candidate 14, chimeric hIgG format (hIgG1 or hIgG4) (antibody, V domains shown)
VH: QVQLQQPGAELVKPGASLRVSCKASGYTFTNYWMYWVRQRPGRGLEWIGWIDPNSGGTKYNEKFKSKATLTVDKPSSTAYMQLSSLTSEDSAVYNCARGGYTMDYWGQGTSVTVSS
VL: DVVMTQTPLSLPVSLGDQASISCRASQSLVHSNGNTYLHWYLQKPGQSPKLLIYKVSNRFSGVPDRFSGSGSGTDFTLKISRVEAEDLGVYFCSQSTHVPLTFGAGTKLELK
notes: also called Candidate 14 (hIgG format)
IC50 [27]: 0.14 nM
IC50 [28]: 0.021 µg/mL

B7: Candidate 15, chimeric hIgG format (hIgG1 or hIgG4) (antibody, V domains shown)
VH: QVQLQQPGAELVKPGTSVKLSCKASGYTFINYWIHWVKQRPGRGLEWIGRIDPNTVDAKYNEKFKSKATLTVDKPSSIAYMQLSSLTSEDSAVYYCSRGGYTMDYWGQGTSVTVSS
VL: DVVMTQTPLSLPVSLGDQASISCRSSQSLVHSNGNTYLHWYLQKPGQSPTLLIYKVSNRFSGVPDRFSGSGSGTDFTLKISRVEAEDLGIYFCFQSTHVPWTFGGGTKLEIK
notes: also called Candidate 15 (hIgG format)
IC50 [27]: 0.14 nM
IC50 [28]: 0.021 µg/mL

B8: hIgG4 chimeric candidate 22 (mouse VH/VL, human Fcγ4-S228P and human Kappa backbone) (antibody, V domains shown)
VH: QVQLQQPGAELVKPGASVKLSCKASGYTFTTYWMHWVKQRPGQGLEWIGMIHPNSGTTNYNEKFKSKATLTVDKSSSSTYMQLSSLTSEDSAVYYCTRSHYYDGHFSYWGQGTLVTVSA
VL: DIVMSQSPSSLAVSAGEKVTMSCKSSQSLLNSRTRKNYLAWYQQKPGQSPKLLIYWASTRESGVPDRFTGSGSGTDFTLTISSVQAEDLAVYYCKQSYNLWTFGGGTRLEIKR
notes: hIgG4-S228P/kappa; also called Chim; 22
EC50 [29]: 0.122 µg/mL
equilibrium binding constant [7]: 31.8 pM
EC50 ratio Deglycosylated/Glycosylated [8]: 1.1 ratio
EC95 ratio Deglycosylated/Glycosylated [8]: 1.4 ratio
EC50 [9]: 0.0387 nM
EC95 [9]: 4.67 nM
EC50 [10]: 0.042 nM
EC95 [10]: 6.67 nM
IC50 [30]: 0.14 µg/mL
Kd [31]: 12.2 nM
koff [31]: 0.000381 s⁻¹
kon [31]: 31200 M⁻¹ s⁻¹
Bmax2 [12]: 2.57 OD value
equilibrium binding constant [13]: 34.4 pM
Bmax [14]: 2.85 OD value
